Data reported in the supplement of paper PMC10724198.
± gives the standard deviation of the averaged measurements.

Experiments:
[1] = tested on: Saccharomyces cerevisiae; assay: protein stability index of tFT-peptide fusion (C-terminal peptide) (PSI (0-1 scale)); higher = more stable (slower turnover); details: genetic background: wild type; temperature: 30 C
[2] = tested on: Saccharomyces cerevisiae; assay: as above
Method: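 MPS profiling in S. cerevisiae of the tFT-X12 degron library: putative degron peptides plus stable controls, 12 aa, fused to the C-terminus of a sfGFP-mCherry timer. Cells are FACS-sorted into 8 mCherry/sfGFP bins and deep-sequenced. PSI runs from 0 (unstable) to 1 (stable). Backgrounds are wild type, das1Δ and doa10Δ at 30 °C, and wild type, das1Δ, cdc34-1 and cdc53-1 at 37 °C; 2-3 technical replicates each.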

[3] = genetic background: cdc34-1, temperature: 37 C
[4] = genetic background: cdc53-1, temperature: 37 C
[5] = genetic background: das1 deletion, temperature: 30 C
[6] = genetic background: das1 deletion, temperature: 37 C
[7] = genetic background: doa10 deletion, temperature: 30 C
[8] = genetic background: wild type, temperature: 30 C
[9] = genetic background: wild type, temperature: 37 C
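Further: PSI is a weighted mean of sequencing reads over stability bins, variants kept only with over 10 reads, mCherry proximal and sfGFP distal, peptide attached via GGGS linker.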

Sequence	protein stability index [1]	protein stability index [2, 3]	protein stability index [2, 4]	protein stability index [2, 5]	protein stability index [2, 6]	protein stability index [2, 7]	protein stability index [2, 8]	protein stability index [2, 9]
RCCWWNAQAVWR	0.578 ± 0.15	0.725 ± 0.043	0.7494 ± 0.0045	0.638 ± 0.029	0.752 ± 0.0039	0.655 ± 0.016	0.631 ± 0.032	0.73 ± 0.023
RCLHTSVFLIFP	0.459 ± 0.03	0.484 ± 0.012	0.488 ± 0.038	0.476 ± 0.038	0.604 ± 0.021	0.652 ± 0.026	0.488 ± 0.03	0.54 ± 0.008
RDASLLFHFFVC	0.199 ± 0.0058	0.507 ± 0.059	0.727 ± 0.014	0.614 ± 0.012	0.726 ± 0.011	0.0833 ± 0.018	0.0965 ± 0.0056	0.143 ± 0.015
REGDLLKFKMRP	0.725 ± 0.067	0.6854 ± 0.0054	0.727 ± 0.008	0.637 ± 0.024	0.716 ± 0.018	0.637 ± 0.037	0.639 ± 0.015	0.703 ± 0.027
RFFVRRVRVAVL	0.406 ± 0.0052	0.786 ± 0.036	0.817 ± 0.019	0.553 ± 0.055	0.687 ± 0.0081	0.386 ± 0.025	0.382 ± 0.031	0.578 ± 0.048
RFICMMYLVYLC	0.1405 ± 0.0006	0.142 ± 0.022	0.188 ± 0.023	0.192 ± 0.03	0.3 ± 0.016	0.0601 ± 0.035	0.0619 ± 0.018	0.073 ± 0.019
RFLPYLPTPLSP	0.52 ± 0.031	0.664 ± 0.026	0.7203 ± 0.0043	0.506 ± 0.016	0.5974 ± 0.0048	0.502 ± 0.016	0.513 ± 0.014	0.568 ± 0.011
RGAVLLPSLWVV	0.483 ± 0.061	0.659 ± 0.025	0.7044 ± 0.0028	0.577 ± 0.027	0.7355 ± 0.0068	0.356 ± 0.033	0.381 ± 0.022	0.551 ± 0.0061
RGCLVHSGFFIV	0.401 ± 0.067	0.65 ± 0.034	0.683 ± 0.011	0.62 ± 0.018	0.6898 ± 0.0051	0.212 ± 0.0034	0.239 ± 0.027	0.4987 ± 0.0029
RGGVLYVSIRCK	0.341 ± 0.053	0.282 ± 0.019	0.335 ± 0.0034	0.228 ± 0.032	0.397 ± 0.0054	0.186 ± 0.015	0.233 ± 0.037	0.386 ± 0.023
RIHRRLIKNKRV	0.162 ± 0.086	0.649 ± 0.021	0.7 ± 0.02	0.71 ± 0.036	0.739 ± 0.041	0.155 ± 0.028	0.156 ± 0.038	0.377 ± 0.023
RIVSGVVLLVFV	0.336 ± 0.035	0.404 ± 0.0079	0.469 ± 0.0074	0.237 ± 0.019	0.5234 ± 0.0034	0.206 ± 0.015	0.226 ± 0.042	0.527 ± 0.034
RKGQNKKRNKIY	0.399 ± 0.02	0.7504 ± 0.0028	0.767 ± 0.019	0.659 ± 0.008	0.7331 ± 0.0033	0.203 ± 0.028	0.295 ± 0.035	0.575 ± 0.044
RKWLFFRSWRYV	0.134 ± 0.002	0.476 ± 0.047	0.69 ± 0.012	0.626 ± 0.028	0.7486 ± 0.0024	0.0555 ± 0.024	0.0663 ± 0.011	0.0912 ± 0.024
RLFIIYLLNIQG	0.407 ± 0.019	0.37 ± 0.052	0.5289 ± 0.0034	0.311 ± 0.022	0.544 ± 0.022	0.263 ± 0.0062	0.305 ± 0.047	0.515 ± 0.022
RLFSPPVLATPS	0.0111 ± 0.016	0.654 ± 0.012	0.679 ± 0.025	0.525 ± 0.031	0.696 ± 0.021	0.51908 ± 0.00034	0.534 ± 0.019	0.6477 ± 0.0014
RLIAVAGVVVVA	0.477 ± 0.054	0.541 ± 0.032	0.5509 ± 0.0042	0.425 ± 0.025	0.5685 ± 0.0055	0.3997 ± 0.00095	0.431 ± 0.021	0.547 ± 0.0055
RLLSIFKILHVG	0.188 ± 0.036	0.526 ± 0.0063	0.6593 ± 0.0037	0.638 ± 0.013	0.705 ± 0.014	0.0881 ± 0.028	0.0968 ± 0.0051	0.1507 ± 0.00028
RLRHPPRLSTLC	0.463 ± 0.0095	0.635 ± 0.025	0.743 ± 0.00093	0.629 ± 0.029	0.73873 ± 0.00026	0.306 ± 0.018	0.338 ± 0.023	0.594 ± 0.069
RLSTPFTVNHFI	0.312 ± 0.099	0.613 ± 0.031	0.732 ± 0.035	0.696 ± 0.031	0.766 ± 0.0088	0.155 ± 0.04	0.168 ± 0.044	0.374 ± 0.044
RLVPFMAVRVLF	0.487 ± 0.044	0.571 ± 0.034	0.6204 ± 0.0016	0.517 ± 0.013	0.6492 ± 0.0023	0.413 ± 0.025	0.41 ± 0.018	0.5719 ± 0.0024
RRVRVVCVIVAA	0.373 ± 0.071	0.286 ± 0.0078	0.373 ± 0.009	0.238 ± 0.041	0.4735 ± 0.0028	0.189 ± 0.0071	0.221 ± 0.03	0.443 ± 0.025
RSFNVGLELLVW	0.398 ± 0.0062	0.382 ± 0.026	0.395 ± 0.035	0.295 ± 0.05	0.449 ± 0.0063	0.259 ± 0.0039	0.297 ± 0.046	0.4159 ± 0.001
RTWFTYMSIPVW	0.343 ± 0.024	0.196 ± 0.012	0.204 ± 0.069	0.234 ± 0.026	0.341 ± 0.01	0.189 ± 0.023	0.237 ± 0.026	0.311 ± 0.0057
RVFGWIEVEVEG	0.489 ± 0.079	0.5179 ± 0.001	0.565 ± 0.019	0.403 ± 0.023	0.5679 ± 0.0026	0.346 ± 0.018	0.386 ± 0.054	0.584 ± 0.007
RVFRLDRRLQVV	0.3 ± 0.0059	0.55 ± 0.02	0.633 ± 0.041	0.509 ± 0.018	0.638 ± 0.012	0.128 ± 0.012	0.154 ± 0.018	0.213 ± 0.005
RVGSSLIVVYCV	0.337 ± 0.022	0.452 ± 0.024	0.461 ± 0.017	0.264 ± 0.034	0.502 ± 0.0096	0.207 ± 0.0045	0.238 ± 0.023	0.427 ± 0.018
RVLCLVSSLTLF	0.441 ± 0.0073	0.549 ± 0.013	0.592 ± 0.0061	0.413 ± 0.027	0.612 ± 0.017	0.352 ± 0.0058	0.388 ± 0.026	0.5961 ± 0.00089
RWTKMNNLIIEF	0.7466 ± 0.0064	0.693 ± 0.0083	0.744 ± 0.0087	0.667 ± 0.013	0.742 ± 0.042	0.678 ± 0.012	0.648 ± 0.025	0.699 ± 0.026
RWVFAGVGLFVG	0.502 ± 0.028	0.691 ± 0.071	0.732 ± 0.016	0.605 ± 0.0071	0.7241 ± 0.0046	0.353 ± 0.043	0.376 ± 0.025	0.598 ± 0.024
